Assay results as given in US20240026407A1, “MODIFICATION OF SAPONINS” (GLAXOSMITHKLINE BIOLOGICALS SA, priority 2020, published 2024).

What was measured:
Format in all cases: biochemical, Quillaja saponaria
[1] = Experiment 4-1: screening of glucosidases for deglycosylation with purified QS-18 (0.04 mg/ml) at pH 7.5 and room temperature; settings: pH 7.5, room temperature, 20 h, clarified E. coli lysate, QS-18 2150 to QS-21 1988 by LCMS/MS
Method in brief: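 Deglycosylation measured by LC-MS/MS as % conversion after 20 h room-temperature incubation of QS-18 phenyl fraction (0.04 mg/ml final) with polymyxin B/lysozyme lysates, pH 7.5 phosphate, of E. coli BL21(DE3) expressing each enzyme; MeCN quench. Positives exceeded negative control by >3 S.D.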

[2] = Experiment 4-2: screening of glucosidases for deglycosylation with purified QS-18 (1 mg/ml) at pH 6 and 30 deg C; settings: pH 6, 30 degC, 18 hrs, clarified lysate, LCMS/MS
Method in brief: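 Enzyme activity derived from LC-MS/MS analysis after MeCN quench. Substrate QS-18 (1 mg/ml final) was exposed overnight (18 h, 30 °C, pH 6 phosphate buffer) to clarified lysates containing candidate glucosidases.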

[3] = Experiment 4-4: screening of glucosidases for deglycosylation of QS-18 in crude bark extract (1 in 20 dilution) to QS-21; settings: CBE 1 in 20 dilution, pH 6, 25 degC, 18 hours; % conversion of Middle Peak by UV HPLC
Procedure: Lysates were prepared as in Experiment 4-2.
Crude bark extract (CBE) was adjusted to pH 6 by dropwise addition of 2M NaOH with stirring. 25 uL of clarified lysate was transferred to a reaction plate, 22.5 ul of 100 mM potassium phosphate buffer pH 6 was added, 2.5 ul CBE at pH 6 was added. Reaction plates were sealed, incubated at 25 degC with shaking for 18 hours, then quenched by addition of 50 uL acetonitrile (MeCN). Quenched reaction plates were re-sealed and incubated at 20 degC with shaking for 10 min. The reaction plates were centrifuged (10 min, 4 degC) and analysed by UV HPLC with the method below:
Three key peaks of interest are apparent using this chromatography: Left Peak (retention time approximately 2.30-2.35 min) comprising mainly QS-17 family components; Middle Peak (retention time approximately 2.37-2.42 min) comprising mainly QS-18 family components and desglucosyl-QS-17 family components; and Right Peak (retention time approximately 2.44-2.50 min) comprising mainly QS-21 family components. Peak identity was supported by MS/MS.
Enzyme activity is calculated as the % conversion of the Middle Peak present in the crude bark extract: […]

B1: 380 (protein, listed as Ogataea parapolymorpha)
chain: MSTFDVDDILSQLHVKEKVQLLSLKDFWHTANIDRLNIPSVRLSDGPNGVRGTKFFRSVPSACFSSGTALAATFNMPLLEQLGKLMAEEARHKGAHVILGPTCNIARGPLGGRGFESFSEDPYLSGIAAAAIIKGIESQGIGATLKHFVCNDLEDERNSIDVILSDRALREIYLLPFQIAIKEANPKCVMSSYNKVMGEHVSQSKKLLTDILRKEWGWDGLTMSDWFGVYSIKSSLDAGLDLECPGYPLMRKHDALIHAISSREINMDVIDIRVRNILKLVQHALKSSIPQNAPEDSENNTPETSALLRKAASEAIVLLKNESSILPLKPSDEIAVIGPNARIPRMYGGGSASVNCYYGISVYDGISNKIGSQPPYSMGCDIARNMFDLGKLASYKGEPGVRIKVYKEAPGTPDRSLIEEFRYDSLQLLLFDYNHEKLDSSLFYFDIEGEFTSDKDMSYDIHLSCLGTALLYINGELFIDDKTNQKMGFAAIGASSLGDTKTIHMKKDERIEFKIEFGSAPTFTLETLDLVASNGGGSLTVAIGEKITDQNRINDAVELAKTADKVILCVGTSSDWESEGFDRPHMDLPKSQGILIEEILKVNKNIILVNLSGTPVTLPWIDEIPAVVHGWFNGMESGNAMADVLYGDVNASGKLSLSWPKRCEDNPSFLNFKSDKGKVVYGEDVFVGYRYYEKVCREPLFAFGYGLSYTAFNFDGLDVKVAADNLVCTLNIKNIGKLRGAEVVQLYVIPPLTTTTVSRPLKEFKGCQKVFLEPGQKITTTISVPIKYACSYFDVERQKWSIESGEYGVFIGNSSDAMDALIGKFVIQKPLLWSGL
[1]
  Expt 4-1 % conv: 2.4%
[2]
  Expt 4-2 % conv: 0.5%
[3]
  Expt 4-4 % conv: <3%

B2: 222 (protein, listed as Marinomonas posidonica)
chain: MTPKDILNALTVEEKARLCTGKDFWHLHGIERLELPSIMVTDGPHGLRKQSGEGDHVGLNASVKATCFPTASGLASSWNPALIEKMGVALGKECRAENVSVLLGPGINIKRNPLGGRNFEYFSEDPLIAGDMSTAWIKGVQSQDVGTSLKHYAVNNHEHCRMTVDAVVDQRTLREIYLPAFEKAIKQSQPWTVMCAYNKINGTYAAEHQQLLDDILVKEWGFEGIVVTDWGANNDRVEGIKHGQHLEMPSSGELNTQKILDAIDSGRLSIAALDKSVLRVLELIVKSQAALNNAPVNVDLERHHTLASKVAEESCVLLKNDQLLPAQKDQNVLVIGALANNTRYQGAGSSKINPFKLEQPLAQIEAVFGTNNVRYSQGYQLNDESDQTMIEDAVAQAEQADVIFLFAGLTPKYESEGFDRQHLNLPQVQLDLIDALGDQLGKTAVILQNGAPVTLPFVDKVPAILEAYLGGQAGASAIAKILAGDVNPSGKLAETFPLSLDDVPSQPYFPGTTKQTQYREAIWVGYRYFAHTAQPVLFPFGHGLTYSEFSFSELRIMDDKLDLKAVSFDEQTRIRLQVTVTNTGDRAGAEVVQCYLGQNKPSQPRPAKELRAYQKVFLEAGQSKCVELELNYRDFAFWCEADSQWRVESDDYHIQIGASVEDIRLTTLITLKTDTPLAPQNATLSAYFTPADRQFNDQSFSALLGKPIPDATPITPYTLNSTLGDIAQTEQGKPLFNAMLSVFSKMMEGDTNDSAAEADKLMAEAMVSDMPLRNLPVFNSQSYSEEALLALLADLNS
[1]
  Expt 4-1 % conv: 1.6%
[2]
  Expt 4-2 % conv: 0.4%
[3]
  Expt 4-4 % conv: <3%

B3: 354 (protein, listed as Chthonomonas calidirosea)
chain: MGKTKRSLKVNRRDFFTLGAATLLAAISLPDGDLLAFAQKEREKDLVYGIRRERFEWAQKKAAALVAQMTREEKISQVGNNVPAIPRLGLPAYNYYSGEALHGLVRGGPVTSFPLPLALANTWNPELQYQVYTAVSDEARAYHNRDGVGLAYYSPQTINTAKDPRWGRIEETLGEDPHLMSLMAVQAVRGMQGDDPNYLKTVACAKHYIANETDNDRTAVSETVDPRSFWEYYVRPFYACVVDGKVFSVMGAYNAVNGIPCCADKNLLTGILRERWGFQGYVTSDCDAIYNIYDPHHYATSLAEACAMGIKAGCDLDCGDTYPRHLGEAFEQHLLEEADLDKAVTRLLTARFLFGDLDPEPRCPYNKIPFSVVDSPKHRALALEAARQSIVLLKNDGILPLDKTALKSVAVIGPTAAIAHLGGYSGAPFLRVSPLSGIAQALGIGIHFDEVYAYQAVRLEGGPQLESSVEQGGTDIGFIKNGSWVEFPATDFAGKNEIEVRVASDTQGGTIEIHLDRLNGPLLCTLQVPHTGGWQNWISLKAPINGVIGKHKLFFLFKGGDGYLLNVAWYRLNPPSPPETHNPNGIALTYQQGCTITGARNDTMFQKAVEAARQADVAIVVAGVNQEVDAEGHDRDDIRLTGAQHELIQAVYQANPKTILVLSTNAPVAVTWEQENLPAIVAAIFAGQAQGTAIADVLFGNYNPSGKLATTWYKSVEDLPDFHDFDITKRTYMYFEGEPLYPFGYGLSYTTFQIGNIQVSHPRLTSGGSITVSVDVTNIGKRAGTEVVQLYVRPPKSPVKRPNKQLVDFKRVELRPGETKRVELSLPYESPALWYWDVAQSKFVLQPGTVTLMVGNSSAHIAHTTTIELV
[1]
  Expt 4-1 % conv: 1.6%
[2]
  Expt 4-2 % conv: 0.5%
[3]
  Expt 4-4 % conv: <3%

B4: 350 (protein)
chain: MIDDILDKMTLEEQVSLLSGADFWTTVAIERLGVPKIKVTDGPNGARGGGSLVGGVKSACFPVAIALGATWDPELIERAGVALGGQAKSKGASVLLAPTVNIHRSGLNGRNFECYSEDPALTAACAVAYINGVQSQGVAATIKHFVANESEIERQTMSSDVDERTLREIYLPPFEEAVKKAGVKAVMSSYNKLNGTYTSENPWLLTKVLREEWGFDGVVMSDWFGSHSTAETINAGLDLEMPGPWRDRGEKLVAAVREGKVKAETVRASARRILLLLERVGAFEKAPDLAEHALDLPEDRALIRQLGAEGAVLLKNDGVLPLAKSSFDQIAVIGPNAASARVMGGGSARIAAHYTVSPLEGIRAALSNANSLRHAVGCNNNRLIDVFSGEMTVEYFKGRGFESRPVHVETVEKGEFFWFDLPSGDLDLADFSARMTATFVPQETGEHIFGMTNAGLARLFVDGELVVDGYDGWTKGENFFGTANSEQRRAVTLGAARRYRVVVEYEAPKASLDGINICALRFGVEKPLGDAGIAEAVETARKSDIVLLLVGREGEWDTEGLDLPDMRLPGRQEELIEAVAETNPNVVVVLQTGGPIEMPWLGKVRAVLQMWYPGQELGNALADVLFGDVEPAGRLPQTFPKALTDNSAITDDPSIYPGQDGHVRYAEGIFVGYRHHDTREIEPLFPFGFGLGYTRFTWGAPQLSGTEMGADGLTVTVDVTNIGDRAGSDVVQLYVHSPNARVERPFKELRAFAKLKLAPGATGTAVLKIAPRDLAYFDVEAGRFRADAGKYELIVAASAIDIRASVSIHLPVDHVMEP
modifications: Rhizobium radiobacter
[1]
  Expt 4-1 % conv: 2.6%
[2]
  Expt 4-2 % conv: 0.7%
[3]
  Expt 4-4 % conv: <3%

B5: 234 (protein, listed as Sphingobium chlorophenolicum)
chain: MTFPRSLFLASTILAFHCNPSFARNESPAKAIERADKTLKAMTPEEKTILTHGIMPLKILPNSPEPPAEAIPGAGYIKGIPRLGVPALYETDASLGVSYVFGLRKDGATALPSGLAQASTWNPALIEKAGRMIGAETRAKGFNVLLAGGVNLMRDPRNGRNFEYLGEDPLLAGTLVGHAIRGIQSNHIISTIKHFAFNGQETARKLVDSKISAANAHESDLLAFKIGIEIGDPGSVMCAYNKVNGHSACDNNWLLNTVLKHDWGYKGFVMSDWGAVPSLGAALNGLDQQSGEQLDTAVFFGDTLAAAAKSNPVYAKRLDDMNRRILWAIYNNGLDANPAKPGGVIDFKAHGDIAEQVARQGIVLLRNERGVLPLAASTKRIAVIGGYANSGVLSGAGSSQVQAEGGPAVYIPAGNGDENSSFIAESYHNSVPLKALRAAAPNAEITYRNGRYIAEAVAQAKKSDVAIVFATQWTSEGFDVPDMSLPNGQDALLAAVAAANPNTVVVLETGGPVMMPWLDSTAAVIEAWYPGARGAEAIAAVLTGKVNPSGKLPVTFPAHKDQLPRAEVDGMDSTEPSFLGMPDLKGQALVADYDIEGSNIGYRWNALKGNKALFPFGHGLSYTSFAASGLKTDGARASARITNTGKADGATIAQLYLVSRTGKPARRLVSFQRVELVAGQSKPLAMTIDPRLLGDWRDGNWTIVAGDYGFALGEDAEHLGPVTTVRLKGRTWRD
[1]
  Expt 4-1 % conv: 2.5%
[2]
  Expt 4-2 % conv: 0.7%
[3]
  Expt 4-4 % conv: <3%

B6: 339 (protein, listed as Koribacter versatilis)
chain: MKISRVFLATTLALSMFGSAQRPDPRAELMKKPWMDKNKSADERAELVLKEMTVDEKINLIHGQGMEEMAEFGIPMPNKALGNGGAGFVLGVERLGIPLIQMSDAAYGVRSSAKNGRYSTALPSNLGSAASWDPQAACEYGALIGRELRAQGYNMTLGGGVNITREPRNGRTFEYMGEDPILAGTLVGNRIKCEQAQHVIGDTKHYAVNDQESGRTEVDVVISKRAMRETDLLAFEIGIEIGQPGAVMCSYNLVNGTYACQNKYLLTDVLKKDWNFKGFVVSDWGATHSTIESSAAGLDNEQPFGIFYSDKFKAGLDSGKIPMSELDDHVRRILRTEFASGIVDNPVVKAVVDVEAGLETARKIEEGSIVLLKNGNNILPLDKDSIKSVAIIGEKADFGMISGGGSAQVDPPGPSHEWQAHVWFPTSPLKAVQAKLPNAKVDWRSGSDKSKAAALAKQSDIAIVFVHQWISEGMDLPDLTLPFGQDELIERVAAANPRTIVVLESGTAVTMPWLDKVSGVVEAWYGGSKGADAVANILFGDVNPSGKLPMTFPRSVEDVPHPKLAVPPPNPNPMETYMHPELAKATVTATYDEGVKVGYKWYDAEKKPVLFPFGFGLSYTTYQYSGLKVSSGKTTTVSFTVKNTGKRGGDEIAQVYASLPAEAQEPPKRLVGFTKVHLNAGESKEVSVTVPAKYLSVFDEASNGWKLVPGSYSFMVGGSSQDLPQKQSATF
[1]
  Expt 4-1 % conv: 1.4%
[2]
  Expt 4-2 % conv: 0.5%
[3]
  Expt 4-4 % conv: <3%
